Consider two molecules from patent publication US20040063641A1, “Use of growth hormone or a growth hormone secretagogue for promoting bone formation” (priority 1996, published 2004).

In experiment [1] the test system is distracted tibia (bone regenerate). Nature of the experiment: Mechanical torsion testing of distracted tibia after callus distraction in mini-pigs. It is filed as in vivo, Yucatan mini-pigs. Particulars: r-pGH 100 μg/kg daily injection. The protocol:
After sacrifice, the right and left limb were dissected. The soft tissue around the joints was removed, and the ends of the tibia were casted in Beracryl. The constructs were placed in a materials testing machine (Zwick, Ulm, Germany), and torsional moments were applied. Resulting displacements and torsional moments were recorded. The test was conducted with a speed of 30° per minute until failure. The system automatically terminated the test at a torque of […]. The final bone torsional strength of a mini-pig group treated with growth hormone was investigated relative to a control group. 30 mature female Yucatan mini-pigs were equally distributed into two treatment groups. Mini-pigs in the study group received a daily injection of recombinant porcine growth hormone (r-pGH: 100 μg/kg), the mini-pigs in the control group received sodium chloride as placebo. The left tibiae and fibulae were osteotomized and stabilized with an external fixator. Full weight bearing was permitted. The legs were distracted twice daily at 2 mm/day for 10 days and then allowed to consolidate for 10 days. After sacrifice, torsional moments were applied to the distracted and the contralateral tibia in a material testing machine and the maximum torsional moment was determined. Four animals were removed from the study due to bone infection or surgery failure and data of 2 animals were lost due to test machine failure. A t-test was used to determine differences in maximum torsional moments between the treatment groups.

Experiment [2] deals with healing fracture. Particulars: dogs treated with cST; no distraction; cited from earlier work.

B1: GH: recombinant porcine growth hormone (r-pGH), homologous GH given by daily injection to mini-pigs (protein, UniProt P01248 27-216, looked up)
Somatotropin: FPAMPLSSLFANAVLRAQHLHQLAADTYKEFERAYIPEGQRYSIQNAQAAFCFSETIPAPTGKDEAQQRSDVELLRFSLLLIQSWLGPVQFLSRVFTNSLVFGTSDRVYEKLKDLEEGIQALMRELEDGSPRAGQILKQTYDKFDTNLRSDDALLKNYGLLSCFKKDLHKAETYLRVMKCRRFVESSCAF
For B1, in experiment [1] (at sacrifice, p<0.001 vs control), the “maximum torsional moment in comparison to the intact contralateral tibia” value came out at 64±22.4%. In experiment [1] (distracted tibia at sacrifice, mean±SD, p=0.001 vs placebo), the maximum torsional moment is 19.5±7.8 Nm. In experiment [1] (distraction 2 mm/day for 10 days, consolidation 10 days, at sacrifice, p=0.001), the “maximum torsional moment, higher than that of the placebo group” value is given as 131%.

B2: cST: canine somatotropin, given to dogs in the cited study of Buonomo et al. (protein, UniProt P33711 27-216, looked up)
Somatotropin: FPAMPLSSLFANAVLRAQHLHQLAADTYKEFERAYIPEGQRYSIQNAQAAFCFSETIPAPTGKDEAQQRSDVELLRFSLLLIQSWLGPVQFLSRVFTNSLVFGTSDRVYEKLKDLEEGIQALMRELEDGSPRAGQILKQTYDKFDTNLRSDDALLKNYGLLSCFKKDLHKAETYLRVMKCRRFVESSCAF
With B2, in experiment [2], the “increase of stiffness of the healing fracture as compared to non-treated dogs” value is given as 5 fold and the “increase of strength of the healing fracture as compared to non-treated dogs” value is 3 fold.
